The target of assay [1] is T1, human amylin receptor 1 (hAMY1R): human calcitonin receptor co-expressed with human RAMP1 in UMUC3 cells (human, UniProt P30988 25-474; O60894 27-148). Put plainly: cell-based or functional assay.
Assay [2] addresses T2, human calcitonin receptor (hCTR) (human, UniProt P30988 25-474).
T2 sequence (looked up): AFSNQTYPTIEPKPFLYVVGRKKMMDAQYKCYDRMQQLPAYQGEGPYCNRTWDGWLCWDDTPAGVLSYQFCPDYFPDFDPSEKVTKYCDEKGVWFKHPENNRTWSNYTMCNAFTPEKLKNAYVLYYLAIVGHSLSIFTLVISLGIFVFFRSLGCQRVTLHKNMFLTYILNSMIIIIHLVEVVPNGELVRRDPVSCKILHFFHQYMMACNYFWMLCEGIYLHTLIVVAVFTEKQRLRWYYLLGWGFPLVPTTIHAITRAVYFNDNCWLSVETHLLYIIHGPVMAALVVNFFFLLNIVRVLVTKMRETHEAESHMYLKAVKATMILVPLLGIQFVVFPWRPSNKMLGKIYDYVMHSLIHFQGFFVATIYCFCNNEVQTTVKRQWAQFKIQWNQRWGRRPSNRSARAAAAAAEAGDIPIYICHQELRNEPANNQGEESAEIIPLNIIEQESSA
Put plainly: cell-based or functional assay.

Assay [3] has as its target T2, human calcitonin receptor (hCTR). The assay can be described thus: competitive radioligand binding filter assay, hCTR membranes, displacement of 125I-hCT.
Assay [4] addresses T1, human amylin receptor 1 (hAMY1R): human …. The assay can be described thus: competitive radioligand binding filter assay, hAMY1R membranes, displacement of 125I-rAMY. How it is done:
The equilibrium dissociation constants (Kd) for the various receptor/radioligand interactions are determined from saturation binding analysis using the same reagents and buffers as described below for compound testing.
Binding reactions are carried out in 0.1 mL total reaction volume in a polystyrene 96 deep-well assay block. […] The binding reaction is initiated by the addition of 0.05 mL of 200 μg/mL hAMY1R diluted in assay buffer to the radioactivity. Assay blocks are gently vortexed, sealed with parafilm, and incubated at RT for approximately 20 hours.

By Ki is commonly meant a measure of affinity in units of concentration, obtained from inhibition or displacement.

Numbered stars: 1 amine (or outer) side, 2 acyl side, 3 side chain; on linkers, the order of the positions; unused ones are H or OH. Bridge positions count the residues as written; N and C are the ends. Square brackets hold non-standard residues; d marks the D form. Side chains are listed from the residue outwards. Ends that are not written are not given here. * marks the point of attachment. C20 diacid = O=C(O)CCCCCCCCCCCCCCCCCCC(=O)*; γGlu = O=C(O)[C@H](CCC(=O)[*:2])N[*:1]; αMeF = C[C@](N)(Cc1ccccc1)C(=O)O; NMeD = CN[C@@H](CC(=O)O)C(=O)O; NMeN = CN[C@@H](CC(N)=O)C(=O)O; αMeL = CC(C)C[C@](C)(N)C(=O)O; Orn = NCCC[C@H](N)C(=O)O; AEEA = NCCOCCOCC(=O)O; CH2 = C([*:1])[*:2]

T1 sequence (O60894 27-148, chain 2 of 2, one chain of several): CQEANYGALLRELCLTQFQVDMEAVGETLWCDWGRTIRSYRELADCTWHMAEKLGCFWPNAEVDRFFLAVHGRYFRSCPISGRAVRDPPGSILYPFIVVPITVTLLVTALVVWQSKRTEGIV

Take [γGlu]CNTATCATG[Orn]LAE[αMeF]LVRSSN[NMeD]FGPKLPPTEVGSNTY-NH2 (bridge 2-7 via CH2) [Compound III]: in assay [1], the “hAMYIR cAMP EC50” value came out at 0.156 nM. Moreover, the “hCTR cAMP EC50” value in assay [2] stood at 16.3 nM.

On to [γGlu]CNTATCATG[Orn]LAE[αMeF]LVRSSN[NMeN]FGPKLPPTEVGSNTY-NH2 (bridge 2-7 via CH2) [Compound I], for which the “hAMYIR cAMP EC50” value in assay [1] was 0.133 nM. In addition, the “hCTR cAMP EC50” value in assay [2] is 18 nM.

Turning to KCETATCATG[Orn]LAE[αMeF]LVRSSN[NMeD]FGPILPPTEVGSNTY-NH2 (bridge 2-7 via CH2) [Compound V], the “hAMYIR cAMP EC50” value in assay [1] amounted to 0.139 nM. The “hCTR cAMP EC50” value in assay [2] was determined as 17 nM.

With [γGlu]CNTATCATGKLAEFLVRSSNNFGPK([γGlu-γGlu-AEEA-C20 diacid])LPPTEVGSNTY-NH2 (bridge 2-7 via CH2) [Compound XI], the “hAMYIR cAMP EC50” value in assay [1] is 0.038 nM. Also, the “hCTR cAMP EC50” value in assay [2] stood at 10.5 nM.

On to [γGlu]CNTATCATQ[Orn]LAEFLVRSSNNFGPK([AEEA-AEEA-γGlu-C20 diacid])LPPTEVGSNTY-NH2 (bridge 2-7 via CH2) [Compound XII], for which the “hAMYIR cAMP EC50” value in assay [1] came to 0.113 nM. The “hCTR cAMP EC50” value in assay [2] turned out to be 25.9 nM.

As to [γGlu]CNTATCATG[Orn]LAE[αMeF]LVRSSN[NMeD]FGPK([γGlu-γGlu-C20 diacid])LPPTEVGSNTY-NH2 (bridge 2-7 via CH2, Acylated form of Compound III) [Compound IV], the “hAMYIR cAMP EC50” value in assay [1] came out at 0.107 nM. Besides, the “hCTR cAMP EC50” value in assay [2] worked out at 6.14 nM. Further, the Ki turned out to be 665 nM in assay [3] and 0.0296 nM in assay [4].

For the molecule KCETATCATG[Orn][αMeL]AEFLVRSSHNFGPILPPTEVGSNTY-NH2 (bridge 2-7 via CH2) [Compound VII], in assay [1], the “hAMYIR cAMP EC50” value stood at 0.173 nM. Also, in assay [2], the “hCTR cAMP EC50” value was 11.9 nM.

Take [γGlu]CNTATCATGKLAEFLVRSSNNFGPK([AEEA-AEEA-γGlu-C20 diacid])LPPTEVGSNTY-NH2 (bridge 2-7 via CH2) [Compound IX]: the “hAMYIR cAMP EC50” value in assay [1] was found to be 0.132 nM. For the same molecule, in assay [2], the “hCTR cAMP EC50” value came to 18.9 nM.

As to K([γGlu-γGlu-C20 diacid])CETATCATG[Orn]LAE[αMeF]LVRSSN[NMeD]FGPILPPTEVGSNTY-NH2 (bridge 2-7 via CH2, Acylated form of Compound V) [Compound VI], the “hAMYIR cAMP EC50” value in assay [1] came out at 0.107 nM. Moreover, in assay [2], the “hCTR cAMP EC50” value was determined as 13.2 nM. Besides, the values for the Ki in assay [3] and in assay [4] were 235 nM and 0.0445 nM, respectively.

On to K([γGlu-γGlu-C20 diacid])CETATCATG[Orn][αMeL]AEFLVRSSHNFGPILPPTEVGSNTY-NH2 (bridge 2-7 via CH2, Acylated form of Compound VII) [Compound VIII], for which the “hAMYIR cAMP EC50” value in assay [1] was 0.107 nM. Further, the “hCTR cAMP EC50” value in assay [2] came out at 9.69 nM. Also, the Ki in assay [3] amounted to 927 nM; in assay [4], 0.0435 nM.

As to [γGlu]CGTATCATG[Orn]LAEFLVRSSNNFGPK([γGlu-γGlu-C20 diacid])LPPTEVGSNTY-NH2 (bridge 2-7 via CH2) [Compound XIII], the “hAMYIR cAMP EC50” value in assay [1] is 0.078 nM. In addition, the “hCTR cAMP EC50” value in assay [2] came to 9.49 nM.

[γGlu]CNTATCATGKLAEFLVRSSNNFGPK([γGlu-AEEA-AEEA-C20 diacid])LPPTEVGSNTY-NH2 (bridge 2-7 via CH2) [Compound X]: in assay [1], the “hAMYIR cAMP EC50” value came to 0.08 nM. Also, in assay [2], the “hCTR cAMP EC50” value worked out at 14 nM.

Take [γGlu]CNTATCATG[Orn]LAE[αMeF]LVRSSN[NMeN]FGPK([γGlu-γGlu-C20 diacid])LPPTEVGSNTY-NH2 (bridge 2-7 via CH2, Acylated form of Compound I) [Compound II]: in assay [1], the “hAMYIR cAMP EC50” value is 0.075 nM. The “hCTR cAMP EC50” value in assay [2] was determined as 2.34 nM. For the same molecule, the values for the Ki in assay [3] and in assay [4] were 202 nM and 0.017 nM, respectively.

(Values after US20220288168A1 (Eli Lilly, published 2022).)
